In patent US20230322953A1 (HARBOUR BIOMED SHANGHAI, published 2023):

What was measured:
[1] = biological target: T1, human PD-L1 on cells (CHO-K1/hPDL1; MDA-MB-231) (human, UniProt Q9NZQ7 19-290); experiment: competition FACS: biotinylated PD-1 to CHO-K1/hPDL1 cells (Experiment 2)
T1 construct: whole, on cells

[2] = biological target: T2, human CTLA4 on cells (CHO-K1/hCTLA4; HEK293/hCTLA4; 293F-hCTLA4) (human, UniProt P16410 36-223); experiment: FACS, HEK293/hCTLA4 cells
T2 construct: whole, on cells

[3] = biological target: T1, human PD-L1 on cells (CHO-K1/hPDL1; …); experiment: FACS, CHO-K1/hPDL1 cells (Experiment 2)
[4] = biological target: T2, human CTLA4 on cells (CHO-K1/hCTLA4; …); experiment: FACS, CHO-K1/hCTLA4 cells (Test 2)
[5] = biological target: T3, human PD-L1 (programmed death ligand 1) (human, UniProt Q9NZQ7 19-290); experiment: flow cytometry (FACS) on CHO-K1/hPDL1 cells, Experiment 1
T3 construct: whole, on cells; also called hPDL1; CD274

[6] = biological target: T4, human 4-1BB (tumor necrosis factor receptor superfamily member 9) (human, UniProt Q07011 24-255); experiment: flow cytometry (FACS) on CHO-K1/hu 4-1BB cells
T4 construct: whole, on cells; also called hu 4-1BB; CD137

human BCMA [7] = biological target: T5, human BCMA (human, UniProt Q02223 1-184); experiment: FACS on HEK293T/hBCMA cells, Experiment 3
T5 construct: whole, on cells; also called hBCMA; TNFRSF17
T5 sequence (looked up): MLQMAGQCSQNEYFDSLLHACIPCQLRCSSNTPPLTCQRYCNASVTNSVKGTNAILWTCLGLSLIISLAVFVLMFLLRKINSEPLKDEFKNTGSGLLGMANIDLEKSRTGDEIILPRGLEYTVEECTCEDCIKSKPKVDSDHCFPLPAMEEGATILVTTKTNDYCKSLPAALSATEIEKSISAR

human BCMA [8] = biological target: T5, human BCMA; experiment: FACS on HEK293T/hBCMA cells, Experiment 2
human BCMA [9] = biological target: T5, human BCMA; experiment: FACS on NCI-H929 cells
cynomolgus monkey BCMA = biological target: T6, cynomolgus monkey BCMA (cynomolgus monkey, UniProt A0A2K5UD97 1-183); experiment: FACS on HEK293T/cyno BCMA cells
T6 construct: whole, on cells; also called cyno BCMA

[10] = biological target: T7, human PD-L1-His protein (ACRO Biosystems, #PD1-H5229) (human, UniProt Q9NZQ7 19-238); experiment: ELISA, coated hPD-L1-His
T7 construct: extracellular domain; bought; also called hPDL1-His; human PD-L1 extracellular domain recombinant protein

[11] = biological target: T1, human PD-L1 on cells (CHO-K1/hPDL1; …); experiment: FACS, CHO-K1/hPDL1 cells (Experiment 1)
[12] = biological target: T1, human PD-L1 on cells (CHO-K1/hPDL1; …); experiment: competition FACS: biotinylated PD-1 to CHO-K1/hPDL1 cells (Experiment 1)

T2 sequence (P16410 36-223): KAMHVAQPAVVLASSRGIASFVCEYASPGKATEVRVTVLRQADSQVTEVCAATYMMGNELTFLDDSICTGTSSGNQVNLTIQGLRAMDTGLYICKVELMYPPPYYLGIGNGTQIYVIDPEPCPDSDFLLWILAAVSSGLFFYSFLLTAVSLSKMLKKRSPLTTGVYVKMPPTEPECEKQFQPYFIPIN
T3 sequence (Q9NZQ7 19-290): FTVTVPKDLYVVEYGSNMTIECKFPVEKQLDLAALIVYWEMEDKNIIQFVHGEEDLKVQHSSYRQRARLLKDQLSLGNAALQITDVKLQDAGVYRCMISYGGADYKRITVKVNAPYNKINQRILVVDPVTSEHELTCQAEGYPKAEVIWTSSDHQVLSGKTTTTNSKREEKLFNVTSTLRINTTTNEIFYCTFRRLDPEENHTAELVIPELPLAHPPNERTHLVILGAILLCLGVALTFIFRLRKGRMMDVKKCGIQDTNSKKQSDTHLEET
T1 sequence (Q9NZQ7 19-290): as above
T4 sequence (Q07011 24-255): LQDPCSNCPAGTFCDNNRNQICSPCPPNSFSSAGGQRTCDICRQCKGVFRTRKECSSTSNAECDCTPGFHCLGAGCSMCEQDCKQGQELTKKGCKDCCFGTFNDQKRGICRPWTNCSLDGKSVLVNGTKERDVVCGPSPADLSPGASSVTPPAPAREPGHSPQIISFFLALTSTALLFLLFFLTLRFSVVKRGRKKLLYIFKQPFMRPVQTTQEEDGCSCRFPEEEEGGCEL
T7 sequence (Q9NZQ7 19-238): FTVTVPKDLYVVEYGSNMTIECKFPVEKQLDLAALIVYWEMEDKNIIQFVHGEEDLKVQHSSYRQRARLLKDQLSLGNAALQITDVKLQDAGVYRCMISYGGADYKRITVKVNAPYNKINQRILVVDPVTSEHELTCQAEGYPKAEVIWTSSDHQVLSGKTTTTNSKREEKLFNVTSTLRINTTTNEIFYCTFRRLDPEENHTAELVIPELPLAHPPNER
T6 sequence (A0A2K5UD97 entry or part of it): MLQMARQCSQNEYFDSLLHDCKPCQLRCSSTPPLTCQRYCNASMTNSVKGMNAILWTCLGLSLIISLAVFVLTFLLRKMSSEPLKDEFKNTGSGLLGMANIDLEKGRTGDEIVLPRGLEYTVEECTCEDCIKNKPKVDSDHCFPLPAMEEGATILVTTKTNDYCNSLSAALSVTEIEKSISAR

B1: PR000403 (bispecific antibody, human IgG1, kappa, L234A L235A)
chain 1: EVQLVESGGGLVQPGGSLRLSCAASGFTFSSYWMSWVRQAPGKGLEWVANIKQEGSEKYYVDSVKGRFTISRDNAKNSLYLQMNSLRAEDTAVYYCARDRAVAGAFDIWGQGTMVTVSSASTKGPSVFPLAPSSKSTSGGTAALGCLVKDYFPEPVTVSWNSGALTSGVHTFPAVLQSSGLYSLSSVVTVPSSSLGTQTYICNVNHKPSNTKVDKKVEPKSC
chain 2: DIQMTQSPSTLSASVGDRVTVTCRASQSIYIWLAWYQQKPGKAPNLLIYKASSLETGVPSRFSGSGSGTEFTLTISSLQPDDFATYYCQQYYGSSRTFGQGTKVEIKRTVAAPSVFIFPPSDEQLKSGTASVVCLLNNFYPREAKVQWKVDNALQSGNSQESVTEQDSKDSTYSLSSTLTLSKADYEKHKVYACEVTHQGLSSPVTKSFNRGECEVQLVESGGGLIQPGGSLRLSCAVSGFTVSKNYMSWVRQAPGKGLEWVSVVYSGGSKTYADSVKGRFTISRDNSKNTLYLQMNSLRAEDTAVYYCARAVPHSPSSFDIWGQGTMVTVSSEPKSCDKTHTCPPCPAPEAAGGPSVFLFPPKPKDTLMISRTPEVTCVVVDVSHEDPEVKFNWYVDGVEVHNAKTKPREEQYNSTYRVVSVLTVLHQDWLNGKEYKCKVSNKALGAPIEKTISKAKGQPREPQVYTLPPSREEMTKNQVSLTCLVKGFYPSDIAVEWESNGQPENNYKTTPPVLDSDGSFFLYSKLTVDKSRWQQGNVFSCSVMHEALHNHYTQKSLSLSPGK
notes: PD-L1×CTLA4, structure 1 Fab(CL)-VH-Fc
IC50 [1]: 0.42 nM | Maximum inhibition rate (%) [1]: 81.4% | EC50 [2]: 16.3 nM | Maximum MFI [2]: 1410 MFI | EC50 [3]: 0.73 nM | Maximum MFI [3]: 8090 MFI | EC50 [4]: 20.5 nM | Maximum MFI [4]: 343 MFI

B2: PR000701, PD-L1×4-1BB bispecific antibody molecule of FIT-Ig structure (bispecific antibody, human IgG4 S228P, kappa)
chain 1: not shown
chain 2: B1 chain 1
chain 3: not shown
notes: FIT-Ig; Fab A of PR000265 (PD-L1), Fab B of PR000197 (4-1BB) close to Fc; no linker; human IgG4
EC50 [5]: 1.72 nM | Maximum MFI [5]: 1710 MFI | EC50 [6]: 10.2 nM | Maximum MFI [6]: 1340 MFI

B3: PR000404 (bispecific antibody, human IgG1, kappa)
chain 1: B1 chain 1
chain 2: not shown
notes: PD-L1×CTLA4, structure 1
IC50 [1]: 0.6 nM | Maximum inhibition rate (%) [1]: 81.1% | EC50 [2]: 37.2 nM | Maximum MFI [2]: 1620 MFI | EC50 [3]: 0.78 nM | Maximum MFI [3]: 8100 MFI | EC50 [4]: 26.9 nM | Maximum MFI [4]: 339 MFI

B4: PR002199 (bispecific antibody, human IgG1, kappa, L234A L235A)
chain 1: not shown
chain 2: EVQLVESGGGLVQPGRSLRLSCAASGFTFDDYAMHWVRQAPGKGLEWVSGISWNSGSIGYADSVKGRFTISRDNAKNSLYLQMNSLRAEDTALYYCAKDSRGYGDYRLGGAYWGQGTLVTVSSASTKGPSVFPLAPSSKSTSGGTAALGCLVKDYFPEPVTVSWNSGALTSGVHTFPAVLQSSGLYSLSSVVTVPSSSLGTQTYICNVNHKPSNTKVDKKVEPKSCDKTHTCPPCPAPEAAGGPSVFLFPPKPKDTLMISRTPEVTCVVVDVSHEDPEVKFNWYVDGVEVHNAKTKPREEQYNSTYRVVSVLTVLHQDWLNGKEYKCKVSNKALGAPIEKTISKAKGQPREPQVYTLPPCREEMTKNQVSLWCLVKGFYPSDIAVEWESNGQPENNYKTTPPVLDSDGSFFLYSKLTVDKSRWQQGNVFSCSVMHEALHNHYTQKSLSLSPGK
chain 3: EVQLLESGGGLVQPGGSLRLSCAASGFTVSSYGMSWVRQAPGKGPEWVSGIRGSDGSTYYADSVKGRFTISRDNSKNTLYLQMNSLRAEDTAVYYCAKQGENDGPFDHRGQGTLVTVSSGGGGSEVQLLESGGGLVQPGGSLRLSCAASGFTVSSYGMSWVRQAPGKGPEWVSGIRGSDGSTYYADSVKGRFTISRDNSKNTLYLQMNSLRAEDTAVYYCAKQGENDGPFDHRGQGTLVTVSSASEPKSSDKTHTCPPCPAPEAAGGPSVFLFPPKPKDTLMISRTPEVTCVVVDVSHEDPEVKFNWYVDGVEVHNAKTKPREEQYNSTYRVVSVLTVLHQDWLNGKEYKCKVSNKALGAPIEKTISKAKGQPREPQVCTLPPSREEMTKNQVSLSCAVKGFYPSDIAVEWESNGQPENNYKTTPPVLDSDGSFFLVSKLTVDKSRWQQGNVFSCSVMHEALHNHYTQKSLSLSPGK
notes: also called Positive control 2
EC50 (human BCMA [7]): 0.602 nM | Maximum MFI (human BCMA [7]): 117000 | EC50 (human BCMA [8]): 1.13 nM | Maximum MFI (human BCMA [8]): 17000 | EC50 (human BCMA [9]): 4.29 nM | Maximum MFI (human BCMA [9]): 88200

B5: PR003178 (bispecific antibody, human IgG1, lambda, L234A L235A)
light: QAVVTQEPSLTVSPGGTVTLTCRSSTGAVTTSNYANWVQQKPGQAPRGLIGGTNKRAPWTPARFSGSLLGDKAALTLLGAQPEDEAEYFCALWYSNLWVFGGGTKLTVLGQPKAAPSVTLFPPSSEELQANKATLVCLISDFYPGAVTVAWKADSSPVKAGVETTTPSKQSNNKYAASSYLSLTPEQWKSHRSYSCQVTHEGSTVEKTVAPTECS
heavy: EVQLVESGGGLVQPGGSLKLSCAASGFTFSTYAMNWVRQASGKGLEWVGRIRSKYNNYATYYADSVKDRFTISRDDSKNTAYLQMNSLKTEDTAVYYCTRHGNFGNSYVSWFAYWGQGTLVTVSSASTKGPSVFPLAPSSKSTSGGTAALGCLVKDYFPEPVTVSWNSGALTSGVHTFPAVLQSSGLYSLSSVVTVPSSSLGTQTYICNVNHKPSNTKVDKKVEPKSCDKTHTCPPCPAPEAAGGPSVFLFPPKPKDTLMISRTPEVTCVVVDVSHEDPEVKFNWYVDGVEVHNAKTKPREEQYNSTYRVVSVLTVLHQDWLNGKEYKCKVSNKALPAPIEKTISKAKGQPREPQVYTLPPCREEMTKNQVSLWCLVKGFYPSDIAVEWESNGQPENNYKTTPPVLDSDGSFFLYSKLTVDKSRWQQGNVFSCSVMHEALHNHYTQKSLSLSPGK
chain: EVQLVETGGGLIQPGGSLRLSCAASGFTVSDNYMTWVRQAPGKGLEWVSVIFSGGNTYYADSVKGRFTISRDNAKNTLYLQMNSLRAEDTALYYCARRNYDDTRGTDVFDIWGQGTMVTVSSGGGGSGGGGSGGGGSEVQLVETGGGLIQPGGSLRLSCAASGFTVSDNYMTWVRQAPGKGLEWVSVIFSGGNTYYADSVKGRFTISRDNAKNTLYLQMNSLRAEDTALYYCARRNYDDTRGTDVFDIWGQGTMVTVSSASEPKSSDKTHTCPPCPAPEAAGGPSVFLFPPKPKDTLMISRTPEVTCVVVDVSHEDPEVKFNWYVDGVEVHNAKTKPREEQYNSTYRVVSVLTVLHQDWLNGKEYKCKVSNKALPAPIEKTISKAKGQPREPQVCTLPPSREEMTKNQVSLSCAVKGFYPSDIAVEWESNGQPENNYKTTPPVLDSDGSFFLVSKLTVDKSRWQQGNVFSCSVMHEALHNHYTQKSLSLSPGK
EC50 (human BCMA [7]): 0.188 nM | Maximum MFI (human BCMA [7]): 99300 | EC50 (human BCMA [9]): 1.23 nM | Maximum MFI (human BCMA [9]): 15600 | Maximum MFI (cynomolgus monkey BCMA): 115000

B6: PR000070, anti-PD-L1 91G3H5H3, hIgG1(N297A) (antibody, V domains shown)
VH: EVQLVESGGGLVQPGGSLRLSCAASGFTFSSYWMSWVRQAPGKGLEWVANIKQDGSEKYYVDSVKGRFTISRDNAKNSLYLQMNSLRAEDTAVYYCARDRAVAGAFDIWGQGTMVTVSS
VL: DIQMTQSPSTLSASVGDRVTVTCRASQSIYIWLAWYQQKPGKAPNLLIYKASSLETGVPSRFSGSGSGTEFTLTISSLQPDDFATYYCQQYYGSSRTFGQGTKVEIKR
EC50 [10]: 0.146 nM | Maximum OD450 [10]: 3.45 OD450 | EC50 [11]: 0.747 nM | Maximum MFI [11]: 22700 MFI | IC50 [12]: 0.725 nM | Maximum inhibition rate (%) [12]: 96.8%

B7: PR003551, PD-L1×4-1BB bispecific antibody molecule of IgG-VH tetravalent symmetric structure (bispecific antibody)
light: DIQMTQSPSTLSASVGDRVTVTCRASQSIYIWLAWYQQKPGKAPNLLIYKASSLETGVPSRFSGSGSGTEFTLTISSLQPDDFATYYCQQYYGSSRTFGQGTKVEIKRTVAAPSVFIFPPSDEQLKSGTASVVCLLNNFYPREAKVQWKVDNALQSGNSQESVTEQDSKDSTYSLSSTLTLSKADYEKHKVYACEVTHQGLSSPVTKSFNRGEC
heavy: EVQLVESGGGLVQPGGSLRLSCAASGFTFSSYWMSWVRQAPGKGLEWVANIKQEGSEKYYVDSVKGRFTISRDNAKNSLYLQMNSLRAEDTAVYYCARDRAVAGAFDIWGQGTMVTVSSASTKGPSVFPLAPSSKSTSGGTAALGCLVKDYFPEPVTVSWNSGALTSGVHTFPAVLQSSGLYSLSSVVTVPSSSLGTQTYICNVNHKPSNTKVDKKVEPKSCDKTHTCPPCPAPEAAGGPSVFLFPPKPKDTLMISRTPEVTCVVVDVSHEDPEVKFNWYVDGVEVHNAKTKPREEQYNSTYRVVSVLTVLHQDWLNGKEYKCKVSNKALGAPIEKTISKAKGQPREPQVYTLPPSREEMTKNQVSLTCLVKGFYPSDIAVEWESNGQPENNYKTTPPVLDSDGSFFLYSKLTVDKSRWQQGNVFSCSVMHEALHNHYTQKSLSLSPGEPKSSDKTHTPPPPPRTEVQLLESGGGLVQPGGSLRLSCAASGFIFSNFAMTWVRQPPEKGLKWVSSINGSGFNTYYTDSVKGRFTISRDNSRNTLYLQMNRLTAEDTAVYFCAKEGSSETDDHYYNVDVWGQGTTVTVSS
notes: Structure 5; IgG PR000265, VH of PR001836 at C-terminus of heavy chain; linker H1_15-RT; human IgG1 (L234A, L235A, P329G)
EC50 [5]: 1.29 nM | Maximum MFI [5]: 2150 MFI | EC50 [6]: 3.15 nM | Maximum MFI [6]: 1570 MFI
